Measured values taken from the emibetuzumab library of Makowski et al. (2022).

B1: VH:VL chains; a variant is named by its letters at X, in order (parent)
chain 1: QVQLVQSGAEVKKPGASVKVSCKASGYTFTDYXMHWVRQAPGQGLEWMGXVNPNXXXTTYNQKFEGRVTMTTDTSTSTAYMELRSLRSDDTAVYYCARXNXLDXWGQGTTVTVSS
chain 2: DIQMTQSPSSLSASVGDRVTITCSVSSSVSSIYLHWYQQKPGKAPKLLIYSTSNLASGVPSRFSGSGSGTDFTLTISSLQPEDFATYYCQVYSGYPLTFGGGTKVEIK

Variants of: B1
Experiment: yeast display scFab, FACS + sequencing
Outline: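 The non-specific binding call was based on sorted and sequenced yeast displaying a heavy-chain CDR mutant scFab library. Labelling used anti-Myc with biotinylated ovalbumin (260 μg/mL in PBSB, 3 h, room temperature) or soluble membrane proteins (130 μg/mL, 20 min on ice), and FACS collected the top 25% and bottom 10% of binders in two replicates. Positive meant present in ≥3 of 4 pooled positive samples and in no negatives, and negative meant the converse.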

Row | Variant | non-specific binding call
1 | FRGKGSWD | binds
2 | YRGKDSVD | binds
3 | FRGKGSLA | binds
4 | YRGKSSWA | binds
5 | ARGRGSVA | binds
6 | FRGRDSVA | binds
7 | FRGRDYAA | binds
8 | VRGKGSGA | binds
9 | VRGKGSGF | binds
10 | VRGKGSGV | binds
11 | FRGRGFLS | binds
12 | FRGRDAVD | binds
13 | FRGRDAVF | binds
14 | YRGKSSAD | binds
15 | VRGKGAWD | binds
16 | VRGKGAWA | binds
17 | YRGRGSAY | binds
18 | YRGRGSAF | binds
19 | SRGKGSGV | binds
20 | YRGRDVGY | binds
21 | ARGRGAWV | binds
22 | DRGRDAGD | no binding
23 | DRGRDAGA | no binding
24 | YRGKGSLA | binds
25 | YRGRGDSV | no binding
26 | YRGRGAWF | binds

Row | Variant | non-specific binding call
27 | SRGKGDAD | no binding
28 | YRGRGFGS | binds
29 | YRGRGFGV | binds
30 | YRGRGFGF | binds
31 | YRGRGFGY | binds
32 | YRGKDVGV | binds
33 | DRGRGDWV | no binding
34 | VRGRGFLD | binds
35 | FRGKGAAS | binds
36 | FRGKGAAV | binds
37 | FRGKGAAA | binds
38 | FRGRDDLV | no binding
39 | VRGKGSSS | binds
40 | VRGKGSSD | no binding
41 | YRGKGAWA | binds
42 | YRGKGAWS | binds
43 | YRGKGAWY | binds
44 | SRGRGSGA | binds
45 | DRGKNDGD | no binding
46 | YRGRDSWD | binds
47 | SRGRGFAA | binds
48 | YRGRDAGF | binds
49 | FRGRGFSV | binds
50 | FRGRGFSA | binds
51 | FRGRDYGD | binds
52 | FRGRDYGA | binds

Row | Variant | non-specific binding call
53 | FRGRDYGY | binds
54 | FRGRDYGS | binds
55 | FRGRDYGF | binds
56 | VRGRDDVV | no binding
57 | VRGRDYGD | binds
58 | YRGRDALV | binds
59 | FRGRGAWS | binds
60 | FRGRGAWD | binds
61 | FRGRGAWV | binds
62 | FRGRGAWF | binds
63 | FRGRGAVY | binds
64 | YRGKSALA | binds
65 | VRGRDAVS | binds
66 | YRGKGYVV | binds
67 | FRGRGSAF | binds
68 | FRGRGSAD | binds
69 | FRGRGSAA | binds
70 | FRGRGSAY | binds
71 | FRGRGSAV | binds
72 | FRGRGSWS | binds
73 | FRGRGSWV | binds
74 | YRGRASLY | binds
75 | YRGRDSAS | no binding
76 | VRGKGDWV | no binding
77 | YRGRDSSS | binds
78 | FRGKGAGA | binds

Row | Variant | non-specific binding call
79 | FRGKGAGY | binds
80 | FRGKGAGS | binds
81 | FRGRGFVA | binds
82 | FRGRDFAD | binds
83 | ARGRDAWV | binds
84 | YRGRGFWF | binds
85 | FRGRDSWS | binds
86 | YRGKGFGS | binds
87 | YRGKGSGS | binds
88 | YRGKGSGF | binds
89 | YRGKSAAV | binds
90 | DRGRDAWF | no binding
91 | DRGRDAWS | no binding
92 | YRGKGSWS | binds
93 | YRGKGSWA | binds
94 | VRGRDDSA | no binding
95 | FRGRGSLF | binds
96 | FRGRGSLV | binds
97 | FRGRGSLS | binds
98 | YRGKSSVD | binds
99 | YRGRDFVD | binds
100 | YRGKGAGF | binds
101 | YRGKGAGY | binds
102 | YRGRGASF | binds
103 | YRGKGFVV | binds
104 | YRGKGFVA | binds

Row | Variant | non-specific binding call
105 | FRGKGAWD | binds
106 | YRGRGVAA | binds
107 | YRGRGVAV | binds
108 | FRGRGDVD | binds
109 | FRGRGDVV | binds
110 | SRGRGSWD | binds
111 | YRGRGFAD | binds
112 | YRGRGFAY | binds
113 | YRGRGFAS | binds
114 | FRGRDSGY | binds
115 | ARGKGSGD | binds
116 | YRGRDDLA | no binding
117 | FRGRGSSA | binds
118 | FRGRGSSY | binds
119 | FRGRGSSD | binds
120 | ARGRGAAS | binds
121 | ARGRGAAD | binds
122 | FRGRGALA | binds
123 | FRGRGALY | binds
124 | FRGRGALS | binds
125 | FRGRGALF | binds
126 | FRGRDVAV | binds
127 | DRGRDFGV | no binding
